Measured values published in US20230002481A1 (Chugai, published 2023).

Molecular target: T1, recombinant human C1r2s2 tetramer (human, UniProt P09871 16-688; P00736 18-705)
T1 construct: Heterotetramer of two C1r and two C1s chains, co-expressed in FreeStyle293-F cells; also called human C1r2s2s
T1 chain 1: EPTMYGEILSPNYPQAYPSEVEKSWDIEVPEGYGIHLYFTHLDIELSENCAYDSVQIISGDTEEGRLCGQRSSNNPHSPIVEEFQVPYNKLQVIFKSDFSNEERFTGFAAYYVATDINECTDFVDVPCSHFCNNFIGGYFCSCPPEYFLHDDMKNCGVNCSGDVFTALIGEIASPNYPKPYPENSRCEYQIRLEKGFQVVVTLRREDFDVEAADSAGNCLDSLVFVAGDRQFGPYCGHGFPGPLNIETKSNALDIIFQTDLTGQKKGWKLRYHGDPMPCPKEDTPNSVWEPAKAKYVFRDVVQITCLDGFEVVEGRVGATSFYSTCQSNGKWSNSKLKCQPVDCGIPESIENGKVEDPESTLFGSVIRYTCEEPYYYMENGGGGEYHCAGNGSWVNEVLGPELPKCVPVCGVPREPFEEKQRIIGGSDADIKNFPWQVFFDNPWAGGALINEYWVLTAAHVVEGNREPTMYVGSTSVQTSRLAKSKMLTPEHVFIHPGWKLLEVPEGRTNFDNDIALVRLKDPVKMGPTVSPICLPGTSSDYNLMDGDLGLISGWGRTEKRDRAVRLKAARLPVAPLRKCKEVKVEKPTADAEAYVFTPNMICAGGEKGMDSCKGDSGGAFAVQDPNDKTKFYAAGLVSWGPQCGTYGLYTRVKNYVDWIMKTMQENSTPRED
T1 chain 2: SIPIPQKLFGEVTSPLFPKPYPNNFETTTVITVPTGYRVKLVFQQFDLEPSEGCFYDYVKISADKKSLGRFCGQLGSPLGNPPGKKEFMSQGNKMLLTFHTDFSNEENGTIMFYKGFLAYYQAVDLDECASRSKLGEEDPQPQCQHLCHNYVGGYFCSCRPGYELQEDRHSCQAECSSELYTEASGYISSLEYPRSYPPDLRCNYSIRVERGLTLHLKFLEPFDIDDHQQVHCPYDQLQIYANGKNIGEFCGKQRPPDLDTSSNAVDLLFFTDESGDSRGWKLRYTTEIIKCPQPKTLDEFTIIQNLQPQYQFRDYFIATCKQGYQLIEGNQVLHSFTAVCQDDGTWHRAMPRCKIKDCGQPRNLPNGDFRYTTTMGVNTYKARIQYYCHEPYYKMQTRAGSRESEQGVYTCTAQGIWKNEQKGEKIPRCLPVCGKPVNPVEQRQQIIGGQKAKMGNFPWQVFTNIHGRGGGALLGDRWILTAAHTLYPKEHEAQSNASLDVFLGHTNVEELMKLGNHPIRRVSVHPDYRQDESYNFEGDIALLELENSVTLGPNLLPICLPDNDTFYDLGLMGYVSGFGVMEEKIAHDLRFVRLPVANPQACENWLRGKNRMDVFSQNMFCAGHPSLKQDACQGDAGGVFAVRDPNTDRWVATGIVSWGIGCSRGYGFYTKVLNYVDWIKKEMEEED
Test: SPR (Biacore), antibody captured on ProA/G, antigen as analyte, 37 C, pH7.4, 1.2 mM CaCl2
Protocol: The kinetic parameters of anti-C1s antibodies against recombinant human C1s (as described in PCT/JP2018/042054), human C1r2s2, and cyno C1r2s2 His/Flag (also referred as cyno C1r2s2 in the Table and Figures) were assessed at pH7.4 and pH5.8, at 37 degrees C. using BIACORE (registered trademark) T200 instrument (GE Healthcare) or BIACORE 4000 (GE Healthcare). ProAG (Pierce) was immobilized onto a CM4 sensorchip using amine coupling kit (GE Healthcare) according to the recommended settings by GE Healthcare. Antibodies and analytes were diluted into the respective running buffers, ACES pH7.4 and pH5.8 (20 mM ACES, 150 mM NaCl, 1.2 mM CaCl₂, 1 mg/ml BSA, 1 mg/ml CMD, 0.05% Tween 20, 0.005 w/v % NaN₃). Each antibody was captured onto the sensor surface by ProA/G. Antibody capture levels were typically 100-200 resonance units (RU). Then, recombinant C1s was injected at concentrations of 25 and 50 nM followed by dissociation at pH7.4 and pH5.8. The surface was regenerated using 10 mM Glycine-HCl, pH1.5. Kinetic parameters at neutral pH conditions and acidic conditions were determined by fitting the sensorgrams with 1:1 binding model using BIACORE (registered trademark) T200 Evaluation software, version 2.0 (GE Healthcare) or BIACORE 4000 Evaluation software. The dissociation rate at pH5.8 (after dissociation at pH7.4, indicated as pH5.8* in TABLE 2) was determined by processing and fitting data using Scrubber 2.0 (BioLogic Software) curve fitting software. The association rate (ka), dissociation rate (kd), binding affinity (KD) at pH7.4 and pH5.8 condition, and dissociation rate (kd) at pH5.8* condition of the antibodies are listed in TABLE 2. Some kinetic parameters of COS0098pHv1 in acidic condition were not correctly calculated because of its weak binding response.
Also, to observe the cross-reactivity of anti-C1s antibodies against human C1r2s2 and cyno C1r2s2 (cyno C1r2s2 His/Flag), BIACORE (registered trademark) kinetics analysis was performed.

B1: COS0098pHv1 (antibody, V domains shown)
VH: QVQLVQSGAEVKKPGSSVKVSCKASGHTFSKYTVSWIRQPPGKGLEWIGIINTGGSAYPATWAKGRVTITADESTSTAYMELSSLRSEDTAVYYCARGAGDTDYTNLWGQGTLVTVSS
VL: DIQMTQSPSSLSASVGDRVTITCQASENIYSALAWYQQKPGQPPKLLIYGASQLESGVPSRFSGSGSGTDFTLTISSLQPEDFATYYCQQYYFTSHTFGQGTKVEIK
notes: Humanized, optimized pH-dependent variant of COS0098bb
Kd: 4 nM
koff: 0.00206 s⁻¹
kon: 514000 M⁻¹ s⁻¹
